T1: AP2-LT D1 (Plasmodium falciparum, UniProt Q8IAM1 2520-2577)
T1 sequence: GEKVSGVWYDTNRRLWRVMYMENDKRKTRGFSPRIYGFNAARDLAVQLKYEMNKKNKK

T2: AP2-HC D1 (Plasmodium falciparum, UniProt Q8IKR9 1316-1374)
T2 sequence: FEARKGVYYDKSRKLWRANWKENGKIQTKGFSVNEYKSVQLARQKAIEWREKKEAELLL

T3: PF3D7_0420300 D1 (Plasmodium falciparum, UniProt Q8I1N6 1956-2015)
T3 sequence: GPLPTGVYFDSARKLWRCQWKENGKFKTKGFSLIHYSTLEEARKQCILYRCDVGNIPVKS

B1: CACACA_site6310 (dsDNA)
DNA 1: ATACATCAAGGACACACACACACACGCACACGCACA
DNA 2: TGTGCGTGTGCGTGTGTGTGTGTGTCCTTGATGTAT
B2: CACACA_site4405 (dsDNA)
DNA 1: TATATATATCTGTACACACACACATATAAATAAATA
DNA 2: TATTTATTTATATGTGTGTGTGTACAGATATATATA
B3: CACACA_site4111 (dsDNA)
DNA 1: CCCCCCGTGTTATATACACACATAATCAAATAAAAT
DNA 2: ATTTTATTTGATTATGTGTGTATATAACACGGGGGG
B4: CACACA_site6304 (dsDNA)
DNA 1: CACACGCACGAACACACACACACACGCGCACATATA
DNA 2: TATATGTGCGCGTGTGTGTGTGTGTTCGTGCGTGTG
B5: CACACA_site1716 (dsDNA)
DNA 1: GGGGGGGGAGGGTGAATACACACGTAATAATCATAA
DNA 2: TTATGATTATTACGTGTGTATTCACCCTCCCCCCCC
B6: CACACA_site5283 (dsDNA)
DNA 1: AATATAAATAAAAACACACACACACCGATATATATA
DNA 2: TATATATATCGGTGTGTGTGTGTTTTTATTTATATT
B7: CACACA_site8058 (dsDNA)
DNA 1: AACATACATAAACACACACACACACCCACACCCACA
DNA 2: TGTGGGTGTGGGTGTGTGTGTGTGTTTATGTATGTT
B8: CACACA_site6714 (dsDNA)
DNA 1: ATAATACACAAGCACACACACACACGGATATTTATA
DNA 2: TATAAATATCCGTGTGTGTGTGTGCTTGTGTATTAT
B9: CACACA_site6093 (dsDNA)
DNA 1: TATATAAATGGACACACACACACCTTATAATTATTA
DNA 2: TAATAATTATAAGGTGTGTGTGTGTCCATTTATATA
B10: CACACA_site8718 (dsDNA)
DNA 1: ATAATTTGTGGACACACACACACACCGACATATATA
DNA 2: TATATATGTCGGTGTGTGTGTGTGTCCACAAATTAT
B11: CACACA_site8824 (dsDNA)
DNA 1: GATAATTATGGACACACACACACACCCACAACTAAA
DNA 2: TTTAGTTGTGGGTGTGTGTGTGTGTCCATAATTATC
B12: CACACA_site4398 (dsDNA)
DNA 1: AGTATACTCAAACACACACACACAAAAAAAAAAAAA
DNA 2: TTTTTTTTTTTTTGTGTGTGTGTGTTTGAGTATACT
B13: CACACA_site4189 (dsDNA)
DNA 1: AAAAAAAACGGACACACACACATTCAATATAAAACA
DNA 2: TGTTTTATATTGAATGTGTGTGTGTCCGTTTTTTTT
B14: CACACA_site6551 (dsDNA)
DNA 1: ATAAAAAGGAGACACACACACACACGCATATTTATA
DNA 2: TATAAATATGCGTGTGTGTGTGTGTCTCCTTTTTAT
B15: CACACA_site904 (dsDNA)
DNA 1: ATAAAAAGGAAACACACACACACACCCATATATATA
DNA 2: TATATATATGGGTGTGTGTGTGTGTTTCCTTTTTAT
B16: CACACA_site3848 (dsDNA)
DNA 1: ATAAAACAAAAACACACACACATACACAAAAAAAAA
DNA 2: TTTTTTTTTGTGTATGTGTGTGTGTTTTTGTTTTAT
B17: CACACA_site903 (dsDNA)
DNA 1: CCATAAAAAGGATACACACACACACCCACATATATA
DNA 2: TATATATGTGGGTGTGTGTGTGTATCCTTTTTATGG
B18: CACACA_site3497 (dsDNA)
DNA 1: AGCAAATACAAACACACACACACATATACATATATA
DNA 2: TATATATGTATATGTGTGTGTGTGTTTGTATTTGCT
B19: CACACA_site2826 (dsDNA)
DNA 1: AGATATAAGAAAAGCACACACACACCCAAAAAAAAA
DNA 2: TTTTTTTTTGGGTGTGTGTGTGCTTTTCTTATATCT
B20: CACACA_site2623 (dsDNA)
DNA 1: TAATAAATAAATGACACACACACACCCAAAAAAAAA
DNA 2: TTTTTTTTTGGGTGTGTGTGTGTCATTTATTTATTA
B21: CACACA_site2012 (dsDNA)
DNA 1: AATATGAACAGACACACACACACAAAAAAAAAAAAA
DNA 2: TTTTTTTTTTTTTGTGTGTGTGTGTCTGTTCATATT
B22: CACACA_site6387 (dsDNA)
DNA 1: TTAACAAATAGACACACACACACACGCAAAAAAAAA
DNA 2: TTTTTTTTTGCGTGTGTGTGTGTGTCTATTTGTTAA
B23: CACACA_site1515 (dsDNA)
DNA 1: AGTACAGACATAGACACACACACACCCATAAAAAAA
DNA 2: TTTTTTTATGGGTGTGTGTGTGTCTATGTCTGTACT
B24: CACACA_site6301 (dsDNA)
DNA 1: CACACGCACAGACACACACACACACGGATATAAATA
DNA 2: TATTTATATCCGTGTGTGTGTGTGTCTGTGCGTGTG
B25: CACACA_site6643 (dsDNA)
DNA 1: AACATACACATATACACACACACATATATACCTATA
DNA 2: TATAGGTATATATGTGTGTGTGTATATGTGTATGTT
B26: CACACA_site4435 (dsDNA)
DNA 1: TACACAGACGGACACACACACACACTAGAAAAAAAA
DNA 2: TTTTTTTTCTAGTGTGTGTGTGTGTCCGTCTGTGTA
B27: CACACA_site7288 (dsDNA)
DNA 1: AAAAAAAAAAAAAACACACACACACGCACATATACA
DNA 2: TGTATATGTGCGTGTGTGTGTGTTTTTTTTTTTTTT
B28: CACACA_site4909 (dsDNA)
DNA 1: AAAAAATCAAAACACACACACACACTAGAAAAAAAA
DNA 2: TTTTTTTTCTAGTGTGTGTGTGTGTTTTGATTTTTT
B29: CACACA_site1444 (dsDNA)
DNA 1: AAAAAATCAAAACACACACACACACCCAAAAAAAAA
DNA 2: TTTTTTTTTGGGTGTGTGTGTGTGTTTTGATTTTTT
B30: CACACA_site3306 (dsDNA)
DNA 1: CAACATTTGAAACACACACACATACAAACAAACAAA
DNA 2: TTTGTTTGTTTGTATGTGTGTGTGTTTCAAATGTTG
B31: CACACA_site4441 (dsDNA)
DNA 1: CAAATACCCGGACACACACACACAAAAAAAAAAAAA
DNA 2: TTTTTTTTTTTTTGTGTGTGTGTGTCCGGGTATTTG
B32: CACACA_site6495 (dsDNA)
DNA 1: TTAAACTTGAGACACACACACACACGGATATAAAAA
DNA 2: TTTTTATATCCGTGTGTGTGTGTGTCTCAAGTTTAA
B33: CACACA_site8849 (dsDNA)
DNA 1: AAAAAAAAAAAACACACACACACACCGATACATACA
DNA 2: TGTATGTATCGGTGTGTGTGTGTGTTTTTTTTTTTT
B34: CACACA_site4551 (dsDNA)
DNA 1: AAAAAAAAAAAACACACACACACACTAGTACATACA
DNA 2: TGTATGTACTAGTGTGTGTGTGTGTTTTTTTTTTTT
B35: CACACA_site5152 (dsDNA)
DNA 1: GTATAATATGAACACACACACACACCCAAAAAAAAA
DNA 2: TTTTTTTTTGGGTGTGTGTGTGTGTTCATATTATAC
B36: CACACA_site482 (dsDNA)
DNA 1: GAATAATCCAAACACACACACACACCCGAATAAATA
DNA 2: TATTTATTCGGGTGTGTGTGTGTGTTTGGATTATTC
B37: CACACA_site2857 (dsDNA)
DNA 1: AAAAAAAACAGACACACACACATACACATACATACA
DNA 2: TGTATGTATGTGTATGTGTGTGTGTCTGTTTTTTTT
B38: CACACA_site372 (dsDNA)
DNA 1: AAGCATACATCAAGCACACACACACCCACACCCACA
DNA 2: TGTGGGTGTGGGTGTGTGTGTGCTTGATGTATGCTT
B39: CACACA_site6991 (dsDNA)
DNA 1: ACAGAAAAAAGACACACACACATAATATACATACAT
DNA 2: ATGTATGTATATTATGTGTGTGTGTCTTTTTTCTGT
B40: CACACA_site6254 (dsDNA)
DNA 1: TATTTATTAAGACACACACACACACGCACAAAATAA
DNA 2: TTATTTTGTGCGTGTGTGTGTGTGTCTTAATAAATA

target: T1, AP2-LT D1; experiment: gcPBM; about 25 ug protein; PBS, 1% milk, 0.2 mg/ml BSA, salmon testes DNA, 0.03% Triton X-100; settings: tags: N-terminal GST (pGEX-4T-1), kept; label: surface-attached array probe

First: B1
Second: B2
The binding signal of the first is higher: 10.6 ln median PBM intensity, better of two orientations for the first, 10.1 ln median PBM intensity, better of two orientations for the second.

First: B3
Second: B4
The binding signal of the first is higher: 10.8 ln median PBM intensity, better of two orientations for the first, 10.7 ln median PBM intensity, better of two orientations for the second.

First: B5
Second: B6
The binding signal of the first is lower: 10 ln median PBM intensity, better of two orientations for the first, 10.3 ln median PBM intensity, better of two orientations for the second.

With B7 the binding signal was 10.6 ln median PBM intensity, better of two orientations.

target: T2, AP2-HC D1; experiment: as above; settings: tags: N-terminal GST (pGEX-4T-1), kept; label: surface-attached array probe

Compared with B8, B9 is higher in binding signal: 11.8 ln median PBM intensity, better of two orientations for the first, 11.9 ln median PBM intensity, better of two orientations for the second.

First: B10
Second: B11
The binding signal of the first is lower: 11.8 ln median PBM intensity, better of two orientations for the first, 12 ln median PBM intensity, better of two orientations for the second.

B12 and B13 are the same in binding signal: 11.8 ln median PBM intensity, better of two orientations for the first, 11.8 ln median PBM intensity, better of two orientations for the second.

Going from B14 to B15, the binding signal falls from 12 ln median PBM intensity, better of two orientations to 11.9 ln median PBM intensity, better of two orientations.

First: B16
Second: B17
The binding signal of the first is higher: 12.2 ln median PBM intensity, better of two orientations for the first, 11.9 ln median PBM intensity, better of two orientations for the second.

First: B18
Second: B19
The binding signal of the first is lower: 11.7 ln median PBM intensity, better of two orientations for the first, 12.1 ln median PBM intensity, better of two orientations for the second.

Going from B20 to B21, the binding signal falls from 12.1 ln median PBM intensity, better of two orientations to 11.8 ln median PBM intensity, better of two orientations.

Going from B22 to B23, the binding signal rises from 12 ln median PBM intensity, better of two orientations to 12.1 ln median PBM intensity, better of two orientations.

First: B24
Second: B25
The binding signal of the first is lower: 11.7 ln median PBM intensity, better of two orientations for the first, 11.9 ln median PBM intensity, better of two orientations for the second.

B26 and B27 are the same in binding signal: 11.9 ln median PBM intensity, better of two orientations for the first, 11.9 ln median PBM intensity, better of two orientations for the second.

B28 and B29 are the same in binding signal: 11.8 ln median PBM intensity, better of two orientations for the first, 11.8 ln median PBM intensity, better of two orientations for the second.

First: B30
Second: B31
The binding signal of the first is lower: 11.8 ln median PBM intensity, better of two orientations for the first, 11.9 ln median PBM intensity, better of two orientations for the second.

Compared with B32, B33 is higher in binding signal: 11.8 ln median PBM intensity, better of two orientations for the first, 12 ln median PBM intensity, better of two orientations for the second.

Compared with B34, B35 is higher in binding signal: 11.8 ln median PBM intensity, better of two orientations for the first, 11.9 ln median PBM intensity, better of two orientations for the second.

First: B36
Second: B37
The binding signal of the first is lower: 11.7 ln median PBM intensity, better of two orientations for the first, 11.8 ln median PBM intensity, better of two orientations for the second.

Going from B38 to B39, the binding signal falls from 11.9 ln median PBM intensity, better of two orientations to 11.8 ln median PBM intensity, better of two orientations.

In the case of B40, the binding signal is reported as 12.1 ln median PBM intensity, better of two orientations.

target: T3, PF3D7_0420300 D1; experiment: as above; settings: tags: N-terminal GST (pGEX-4T-1), kept; label: surface-attached array probe

Compared with B1, B2 is lower in binding signal: 10.4 ln median PBM intensity, better of two orientations for the first, 10 ln median PBM intensity, better of two orientations for the second.

Compared with B3, B4 is lower in binding signal: 10.8 ln median PBM intensity, better of two orientations for the first, 10.4 ln median PBM intensity, better of two orientations for the second.

First: B5
Second: B6
The binding signal of the first is higher: 10.5 ln median PBM intensity, better of two orientations for the first, 10.3 ln median PBM intensity, better of two orientations for the second.

In the case of B7, the binding signal is reported as 10.4 ln median PBM intensity, better of two orientations.
